For four molecules, Kd, Km and kcat results are on record in article PMC4744555, “Pi Release Limits the Intrinsic and RNA-Stimulated ATPase Cycles of DEAD-Box Protein 5 (Dbp5)” (Journal of Molecular Biology, 2016).

Data set [1] has as its target T1, Dbp5 (Saccharomyces cerevisiae, UniProt P20449).
T1 construct: full-length, N-terminal 6xHis tag, expressed in E. coli
T1 sequence (P20449 1-482): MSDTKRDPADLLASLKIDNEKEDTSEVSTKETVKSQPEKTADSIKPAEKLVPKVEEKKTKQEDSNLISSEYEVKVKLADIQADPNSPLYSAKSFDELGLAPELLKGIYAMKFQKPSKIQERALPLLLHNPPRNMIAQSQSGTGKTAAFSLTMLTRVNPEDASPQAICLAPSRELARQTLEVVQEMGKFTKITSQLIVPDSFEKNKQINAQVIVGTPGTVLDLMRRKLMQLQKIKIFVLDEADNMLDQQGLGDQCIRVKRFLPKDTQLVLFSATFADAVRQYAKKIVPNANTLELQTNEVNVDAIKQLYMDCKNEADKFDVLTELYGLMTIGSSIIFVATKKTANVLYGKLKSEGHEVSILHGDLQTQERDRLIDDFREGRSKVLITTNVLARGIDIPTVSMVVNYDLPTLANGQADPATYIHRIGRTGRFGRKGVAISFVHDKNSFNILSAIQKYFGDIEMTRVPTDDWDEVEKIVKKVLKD
The data set is described as follows: transient Pi release lag phase, phosphate binding protein (PiBiP), stopped flow. Format: biochemical. As to conditions: no RNA; 30 mM Hepes pH 7.5, 100 mM KCl, 2 mM MgCl2, 2 mM DTT, 25 °C; ATP dissociation constant from lag-phase dependence; also determined by mant-nucleotide competition. From the text: transient Pi release lag phase, phosphate binding protein (PiBiP), stopped flow on Dbp5

The target of data set [2] is T1, Dbp5. Nature of the data set: FRET stopped flow, total fluorescence amplitude. It counts as binding. An excerpt:
FRET stopped flow, total fluorescence amplitude on Dbp5

Data set [3] has as its target T1, Dbp5. The data set is described as follows: kinetic competition with mantADP, FRET stopped flow. Format: binding. As to conditions: no RNA; 30 mM Hepes pH 7.5, 100 mM KCl, 2 mM MgCl2, 2 mM DTT, 25 °C. An excerpt: kinetic competition with mantADP, FRET stopped flow on Dbp5
Substrate in data set [4]: Nc1ncnc2c1ncn2[C@@H]1O[C@H](CO[P@](=O)(O)O[P@](=O)(O)O[P@@](=O)(O)S)[C@@H](O)[C@H]1O
Nature of the data set: NADH-coupled steady-state ATPase assay. Format: biochemical, Saccharomyces cerevisiae. The conditions noted are these: no RNA, 30 mM Hepes pH 7.5, 100 mM KCl, 2 mM MgCl2, 2 mM DTT, 25 °C. From the text:
(§1) NADH-coupled steady-state ATPase assay on Dbp5

Substrate in data set [5]: Nc1ncnc2c1ncn2[C@@H]1O[C@H](COP(=O)(O)OP(=O)(O)OP(=O)(O)O)[C@@H](O)[C@H]1O
The data set is described as follows: NADH-coupled steady-state ATPase assay. As to conditions: no RNA, 30 mM Hepes pH 7.5, 100 mM KCl, 2 mM MgCl2, 2 mM DTT, 25 °C. Format: biochemical, Saccharomyces cerevisiae.
From the text: as §1

`Nc1ncnc2c1ncn2[C@@H]1O[C@H](COP(=O)(O)OP(=O)(O)OP(=O)(O)O)[C@@H](O)[C@H]1O` [ATP]: the Kd (in general, the constant that tells how readily two partners part at equilibrium) on Dbp5 [1] came out at 4000 µM.
The molecule `CNc1ccccc1C(=O)O[C@H]1[C@@H](O)[C@H](n2cnc3c(N)ncnc32)O[C@@H]1CO[P@@](=O)(O)O[P@](=O)(O)OP(=O)(O)O` [mantATP] came in with a Kd on Dbp5 [2] of 1 µM.
For the molecule `Nc1ncnc2c1ncn2[C@@H]1O[C@H](COP(=O)(O)OP(=O)(O)O)[C@@H](O)[C@H]1O` [ADP], on Dbp5 [3], the dissociation constant Kd is 360 µM.

B1: Dbp5 (Saccharomyces cerevisiae S288C) (protein)
chain: T1 sequence (P20449 1-482)
notes: full-length, N-terminal 6xHis tag, expressed in E. coli
B1: the Km was 0.98 (± 0.06) mM in data set [4] and 1.7 (± 0.2) mM in data set [5]. For the same molecule, the kcat in data set [4] was 0.036 (± 0.001) s^− 1; in data set [5] it was 0.043 (± 0.001) s^− 1.
